The target in this data set is T1, POT1 (human, UniProt Q9NUX5 1-634).
T1 sequence: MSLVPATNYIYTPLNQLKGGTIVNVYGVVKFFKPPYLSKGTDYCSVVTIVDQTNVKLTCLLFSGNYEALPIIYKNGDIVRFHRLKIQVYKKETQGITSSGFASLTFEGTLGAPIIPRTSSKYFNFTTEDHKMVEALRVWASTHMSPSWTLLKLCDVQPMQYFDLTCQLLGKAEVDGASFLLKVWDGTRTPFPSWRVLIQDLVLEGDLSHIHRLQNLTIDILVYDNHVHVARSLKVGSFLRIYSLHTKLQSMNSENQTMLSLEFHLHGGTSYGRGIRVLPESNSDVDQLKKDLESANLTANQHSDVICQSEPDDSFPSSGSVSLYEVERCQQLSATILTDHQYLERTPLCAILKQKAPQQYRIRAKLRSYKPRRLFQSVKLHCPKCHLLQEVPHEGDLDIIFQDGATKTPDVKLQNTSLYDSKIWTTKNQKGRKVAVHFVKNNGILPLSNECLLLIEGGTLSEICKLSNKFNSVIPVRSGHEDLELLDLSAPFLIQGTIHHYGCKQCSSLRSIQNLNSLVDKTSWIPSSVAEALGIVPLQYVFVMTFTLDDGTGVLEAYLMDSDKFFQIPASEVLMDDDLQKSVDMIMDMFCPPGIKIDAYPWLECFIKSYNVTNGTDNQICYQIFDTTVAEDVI
The experiment in a line: smFRET; FRET to 0.45; 10 mM Tris-HCl pH 7.5, 100 mM NaCl, 10% glycerol, oxygen scavenging system (trolox, glucose, glucose oxidase, catalase), ~23 C. Conditions: protein: recombinant; label: 3'Cy3 strand 1; Cy5 and 3'biotin strand 2; 3' overhang 24 nt; 18 bp duplex.

B1: T6(TTAGGG)2T6 overhang (mixed)
DNA 1: TGGCGACGGCAGCGAGGCTTTTTTTTAGGGTTAGGGTTTTTT
DNA 2: GCCTCGCTGCCGTCGCCA
Turning to B1, the binding result is recorded as “binds”.

The record behind these values is paper PMC8643667, “TRF2 promotes dynamic and stepwise looping of POT1 bound telomeric overhang”.
